Molecular target: T1, recombinant mouse E-selectin-human Fc chimera (mouse, UniProt Q00690 22-557)
T1 construct: Bought reagent (R&D Systems); Used as the probe in western blots and detected with HRP goat anti-human Ig; also called E-selectin-Ig chimera; E-Ig; not shown: human Fc
T1 sequence (looked up): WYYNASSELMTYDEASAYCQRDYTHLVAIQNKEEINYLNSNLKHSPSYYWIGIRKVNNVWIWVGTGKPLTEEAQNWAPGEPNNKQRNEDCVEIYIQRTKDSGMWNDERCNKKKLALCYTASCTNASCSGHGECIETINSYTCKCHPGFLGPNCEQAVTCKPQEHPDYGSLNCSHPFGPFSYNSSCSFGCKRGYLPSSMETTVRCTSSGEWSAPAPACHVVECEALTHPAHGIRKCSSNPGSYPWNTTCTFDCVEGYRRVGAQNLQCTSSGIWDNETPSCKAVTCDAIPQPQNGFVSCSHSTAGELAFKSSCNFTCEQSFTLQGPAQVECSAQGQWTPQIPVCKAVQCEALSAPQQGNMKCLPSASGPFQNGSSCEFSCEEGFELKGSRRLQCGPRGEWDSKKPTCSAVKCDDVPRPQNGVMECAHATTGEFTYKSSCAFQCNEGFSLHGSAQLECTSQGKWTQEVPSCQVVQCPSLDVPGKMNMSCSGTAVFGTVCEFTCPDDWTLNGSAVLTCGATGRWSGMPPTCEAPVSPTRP
Experiment: western blot of ML lysates and WGA-purified glycoproteins, reducing SDS-PAGE

B1: P-selectin glycoprotein ligand-1 (PSGL-1), Cutaneous Lymphocyte Antigen glycoform, from ML lysates (ligand, human, UniProt Q14242 42-412, looked up)
chain: QATEYEYLDYDFLPETEPPEMLRNSTDTTPLTGPGTPESTTVEPAARRSTGLDAGGAVTELTTELANMGNLSTDSAAMEIQTTQPAATEAQTTQPVPTEAQTTPLAATEAQTTRLTATEAQTTPLAATEAQTTPPAATEAQTTQPTGLEAQTTAPAAMEAQTTAPAAMEAQTTPPAAMEAQTTQTTAMEAQTTAPEATEAQTTQPTATEAQTTPLAAMEALSTEPSATEALSMEPTTKRGLFIPFSVSSVTHKGIPMAASNLSVNYPVGAPDHISVKQCLLAILILALVATIFFVCTVVLAVRLSRKGHMYPVRNYSPTEMVCISSLLPDGGEGPSATANGGLSKAKSPGLTPEPREDREGDDLTLHSFLP
modifications: sialofucosylated glycans
notes: Named only by the position of its band in the blot; also called CLA; ~140 kDa E-selectin ligand
B1: binds.
